# Patent US12454527B2, “Conjugate monomethyl auristatin E to obtain a composition for treatment of prostate cancer” (priority 2019, dated 2025)
# Starred links: 1 amine or outer side, 2 acyl side, 3 side chain; linkers in the order of their positions; H or OH if unused. Non-standard residues stand in square brackets, D forms with d. Residues, ends and D or L forms follow the SMILES beside them. ξ: configuration not given here. *: point of attachment. GluureaLys(ε-3-ClBenzyl) = O=C(O)CC[C@H](NC(=O)N[C@@H](CCCCN(Cc1cccc(Cl)c1)*)C(=O)O)C(=O)O; Dolaproine = CO[C@@H]([C@@H]1CCCN1)[C@@H](C)C(=O)O; Dil = CC[C@H](C)[C@H](NC)[C@@H](CC(=O)O)OC; X1 = O=C(CCCc1cn(CCCN[*:1])nn1)[*:2]; PABC = O=C(OCc1ccc(N[*:1])cc1)[*:2]; X2 = C[C@@H](N*)[C@@H](O)c1ccccc1; Cit = NC(=O)NCCC[C@H](N)C(=O)O; Suc = O=C(CCC(=O)[*:2])[*:1]; NMeV = CN[C@H](C(=O)O)C(C)C; ξV = CC(C)C(N)C(=O)O; Ahx = NCCCCCC(=O)O
# Assay: Chronic toxicity study, intravenous once every 3 weeks, rats
# Type: in vivo
# Settings: for Necropsy / Signs of intoxication: male rats
# Description: Chronic toxicity study of Conjugate (1) product on Rats and rabbits.
# • 1. Conjugate (I). • 2. Solubilizer Pluronic F127—in the amount, five-fold greater than the conjugate amount by weight. • 3. Diluent—Haemodes infusion solution. • 4. Dimethyl sulfoxide—in the amount of 5% of the prepared volume.
# A 1 00 white ° inbred mature male rats about 2 months old with a body weight of 190-210 g and 60 sexually mature male rabbits of the Soviet Chinchilla breed about 2 months old with a body weight of […] were involved in the experiment.
# The study design determined the intravenous administration of the test drugs once every 3 weeks for 3 months (a total of 4 injections) for the experiment of chronic toxicity determination. The local irritant effect of the products within intravenous administration will be studied together with the chronic toxicity study.
# Each animal received the intravenous injection of the test drug or the reference drug in a volume not exceeding the acceptable volume for a single injection of 2 mL for rats and 20 mL for rabbits. The products were replaced with a Pluronic solution with DMSO in Haemodes in the control group of animals. The duration of observation for laboratory animals was 4 weeks (intermediate stage).
# Apparent signs of intoxication were evaluated daily. During the study, integral indicators of animal health were recorded (see Tables 15. 16, 17).
# [1] = group 2, 150 μg/kg intravenously 1 time in 3 weeks
# [2] = group 3, 188 μg/kg intravenously 1 time in 3 weeks
compound,measurement,setting,value
CC[C@H](C)[C@@H]([C@@H](CC(=O)N1CCC[C@H]1[C@H](OC)[C@@H](C)C(=O)N[C@H](C)[C@@H](O)c1ccccc1)OC)N(C)C(=O)[C@@H](NC(=O)[C@H](C(C)C)N(C)C(=O)OCc1ccc(NC(=O)[C@H](CCCNC(N)=O)NC(=O)C(NC(=O)CCCc2cn(CCCNC(=O)[C@H](Cc3ccc(O)cc3)NC(=O)[C@H](Cc3ccccc3)NC(=O)CCC(=O)NCCCCCC(=O)N(CCCC[C@H](NC(=O)N[C@@H](CCC(=O)O)C(=O)O)C(=O)O)Cc3cccc(Cl)c3)nn2)C(C)C)cc1)C(C)C (stereo partly shown) [Conjugate (I)] ({GluureaLys(ε-3-ClBenzyl)-Ahx-Suc}-FY[X1][ξV][Cit][PABC][NMeV]V[Dil][Dolaproine]-X2),Necropsy,[1],None
same,Signs of intoxication,[1],No signs of intoxication
same,Necropsy,[2],None
same,Signs of intoxication,[2],No signs of intoxication
same,Necropsy,"group 4, 225 μg/kg intravenously 1 time in 3 weeks",None
same,Signs of intoxication,"group 4, 225 μg/kg, 2-3 days after the first administration, all animals, finishing on days 6-7",group developed diarrhea finishing on
same,Signs of intoxication,"group 4, 225 μg/kg, 2-3 days after the second administration",animals showed diarrhea.
same,Main observed toxic effect,"rats, chronic",decreased body weight gain
same,Rat excretory system: urine volume,"rats, chronic",reliable decreased urine volume
same,Chronic toxicity (overall),"rats, i.v. once every 3 weeks, intermediate stage 4 weeks",moderate toxicity
